Laboratory results as given in patent publication US10428140B2, “Anti-EphA4 antibody” (EISAI R&D MANAGEMENT CO., LTD., priority 2015, dated 2019).

How the values were obtained:
Assay in all cases: Selectivity ELISA of humanized antibodies for human Eph receptor
Type in all cases: binding
Settings in all cases: coated protein 1 nM
human EphA10 = target: T1, human EphA10 (Homo sapiens, UniProt Q5JZY3)
T1 construct: a protein of the extracellular region of each human Eph receptor fused with the SEAP protein and the His tag; made in house; host or cells: Expi293F cells (culture supernatant)
T1 sequence (Q5JZY3 34-565 limits assumed): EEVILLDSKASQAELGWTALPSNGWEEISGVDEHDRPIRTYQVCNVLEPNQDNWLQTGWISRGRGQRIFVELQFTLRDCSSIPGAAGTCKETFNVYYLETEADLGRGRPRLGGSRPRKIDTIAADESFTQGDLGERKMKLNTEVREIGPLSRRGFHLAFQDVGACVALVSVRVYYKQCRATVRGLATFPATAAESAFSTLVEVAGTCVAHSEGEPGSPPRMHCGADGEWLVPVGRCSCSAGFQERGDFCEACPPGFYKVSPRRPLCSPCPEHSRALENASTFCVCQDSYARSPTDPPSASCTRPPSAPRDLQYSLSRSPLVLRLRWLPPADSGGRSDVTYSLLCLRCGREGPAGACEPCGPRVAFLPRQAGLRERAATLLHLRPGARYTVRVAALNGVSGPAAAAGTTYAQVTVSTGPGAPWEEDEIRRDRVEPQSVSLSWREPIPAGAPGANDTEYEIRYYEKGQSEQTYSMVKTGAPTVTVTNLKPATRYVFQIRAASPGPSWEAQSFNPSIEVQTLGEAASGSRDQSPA
Excerpt: (§1) According to the method described in Example 7, a DNA sequence encoding the signal sequence and the extracellular region of each human Eph receptor (EphA1, EphA2, EphA3, EphA4, EphA5, EphA6, EphA7, EphA8, EphA10, EphB1, EphB2, EphB3, EphB4, and EphB6) was amplified by RT-PCR using tissue-derived total RNA and cloned into a pENTR1A vector (Invitrogen/Life Technologies) having a DNA sequence encoding SEAP protein and histidine tag. Next, the DNA sequence encoding the signal sequence and the extracellular region of each human Eph receptor, SEAP protein, and histidine tag was transferred to a pcDNA3.1_rfcB vector through LR reaction using Gateway System (Invitrogen/Life Technologies) to construct a vector for the expression of a protein of the extracellular region of each human Eph receptor fused with the SEAP protein and the His tag (referred to as “Eph receptor extracellular region-SEAP-His protein”) (this vector is referred to as “Eph receptor extracellular region-SEAP-His protein expression vector”).
(§2) Next, each human Eph receptor extracellular region-SEAP-His protein expression vector was transferred to Expi293F cells (Gibco/Thermo Fisher Scientific) using Expi293 expression system (Gibco/Thermo Fisher Scientific). After incubation (5% CO2, 37° C.) for 5 days, the culture supernatant was recovered and centrifuged at 1500 rpm at room temperature for 5 minutes. The centrifugation supernatant was filtered through a 0.45-μm filter (Merck Millipore).
(§3) Each anti-EphA4 monoclonal humanized antibody obtained in Example 16 was evaluated for its binding activity against each human Eph receptor according to the following steps.
(§4) Each well of a 96-well plate (Nunc) was coated with a rabbit anti-6-His antibody (Bethyl Laboratories). Each well was […] After washing with 0.05% Tween 20/PBS (Nacalai Tesque) three times, the SEAP-His protein of human EphA1, EphA2, EphA3, EphA4, EphA5, EphA6, EphA7, EphA8, EphA10, EphB1, EphB2, EphB3, EphB4, or EphB6 was added (final concentration: 1 nM) to each well and incubated at room temperature for 1 hour. After washing three times, the humanized antibody was added to each well and incubated at room temperature for 1 hour. After washing three times, a horseradish peroxidase-labeled donkey […] IgG antibody (Jackson ImmunoResearch Laboratories) was added thereto and incubated at room temperature for 1 hour. After washing three times, TMB Microwell Peroxidase Substrate System (Kirkegaard & Perry Laboratories (KPL)) was added to each well. After confirmation of moderate color development, an equal amount of a reaction stopping solution (1N H2SO4, Wako Pure Chemical Industries) was added to each well. The absorbance at 450 nm was read using a microplate reader (Thermo Fisher Scientific).

human EphB3 = target: T2, human EphB3 (Homo sapiens, UniProt P54753)
T2 construct: a protein of the extracellular region of each human Eph receptor fused with the SEAP protein and the His tag; made in house; host or cells: Expi293F cells
T2 sequence (P54753 34-559 limits assumed): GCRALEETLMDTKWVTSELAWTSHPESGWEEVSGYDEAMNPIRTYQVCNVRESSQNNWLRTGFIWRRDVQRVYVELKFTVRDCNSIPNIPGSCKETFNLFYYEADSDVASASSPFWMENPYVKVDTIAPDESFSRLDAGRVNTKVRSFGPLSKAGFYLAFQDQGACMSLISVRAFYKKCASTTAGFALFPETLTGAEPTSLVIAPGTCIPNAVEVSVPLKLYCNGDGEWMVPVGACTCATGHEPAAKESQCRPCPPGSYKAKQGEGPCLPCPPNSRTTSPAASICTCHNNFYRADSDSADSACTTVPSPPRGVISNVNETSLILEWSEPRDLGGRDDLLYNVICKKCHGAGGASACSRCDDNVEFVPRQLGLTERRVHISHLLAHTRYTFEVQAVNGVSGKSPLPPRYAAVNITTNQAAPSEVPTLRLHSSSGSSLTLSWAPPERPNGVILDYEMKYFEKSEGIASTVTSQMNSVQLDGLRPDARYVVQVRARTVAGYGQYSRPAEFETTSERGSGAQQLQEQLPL
Excerpt: as §1, §2, §3, §4

human EphB2 = target: T3, human EphB2 (Homo sapiens, UniProt P29323)
T3 construct: a protein of the extracellular region of each human Eph receptor fused with the SEAP protein and the His tag; made in house; host or cells: Expi293F cells
T3 sequence (P29323 19-543 limits assumed): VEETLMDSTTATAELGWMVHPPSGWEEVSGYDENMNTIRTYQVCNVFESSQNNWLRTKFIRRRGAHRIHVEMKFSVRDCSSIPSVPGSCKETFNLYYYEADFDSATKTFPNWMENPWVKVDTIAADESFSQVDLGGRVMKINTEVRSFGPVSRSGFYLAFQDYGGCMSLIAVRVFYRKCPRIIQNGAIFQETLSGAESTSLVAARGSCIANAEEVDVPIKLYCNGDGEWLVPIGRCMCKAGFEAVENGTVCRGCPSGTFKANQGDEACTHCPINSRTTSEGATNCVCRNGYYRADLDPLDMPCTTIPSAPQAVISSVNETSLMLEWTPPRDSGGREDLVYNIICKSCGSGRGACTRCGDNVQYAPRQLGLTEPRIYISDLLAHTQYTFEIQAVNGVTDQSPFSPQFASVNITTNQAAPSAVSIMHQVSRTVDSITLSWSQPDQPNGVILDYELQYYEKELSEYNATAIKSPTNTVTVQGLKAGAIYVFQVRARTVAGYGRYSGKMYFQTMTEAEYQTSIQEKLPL
Excerpt: as §1, §2, §3, §4

Molecule | hEphA10-SEAP-: absorbance at 450 nm, percentage with respect to hEphA4-SEAP-His as 100% (human EphA10) | hEphB3-SEAP-: absorbance at 450 nm, percentage with respect to hEphA4-SEAP-His as 100% (human EphB3) | hEphB2-SEAP-: absorbance at 450 nm, percentage with respect to hEphA4-SEAP-His as 100% (human EphB2)
92 (antibody, V domains shown, constant regions without entry; synthetic humanized antibody light chain variable region sequence; synthetic humanized antibody heavy chain variable region sequence) VL: DIQMTQSPSSLSASVGDRVTITCRASENIYRNLAWYQQKPGKAPQLLLYAATNLADGVPSRFSGSGSGTDYTLTISSLQPEDFATYYCQHFWGTPWTFGQGTKVEIK VH: QIQLVQSGSELKKPGASVKVSCKASGYTFTDYSMHWVRQAPGQGLKWMGWINTETGEPTYADDFKGRFVFSLDTSVSTAYLQISSLKAEDTAVYYCARIPLYYYGSRYWYFDVWGQGTTVTVSS | 6.6% | 6.9% | 6.6%
96 (antibody, V domains shown, constant regions without entry; synthetic humanized antibody light chain variable region sequence; synthetic humanized antibody heavy chain variable region sequence) VL: EIVMTQSPATLSVSPGERATLSCRASENIYRNLAWYQQKPGQSPRLLIYAATNLADGIPARFSGSGSGTEYTLTISSLQSEDFAVYYCQHFWGTPWTFGQGTKVEIK VH: QVQLVQSGSELKKPGASVKVSCKASGYTFTDYSMHWVRQAPGQGLKWMGWINTETGEPTYADDFKGRFVFSLDTSVSTAYLQISSLKAEDTAVYYCARIPLYYYGSRYWYFDVWGQGTTVTVSS | 5.3% | 5.6% | 5.5%
94 (antibody, V domains shown, constant regions without entry; synthetic humanized antibody light chain variable region sequence; synthetic humanized antibody heavy chain variable region sequence) VL: EIVMTQSPATLSVSPGERATLSCRASENIYRNLAWYQQKPGQSPRLLIYAATNLADGIPARFSGSGSGTEYTLTISSLQSEDFAVYYCQHFWGTPWTFGQGTKVEIK VH: QVQLVQSGSELKKPGASVKVSCKASGYTFTDYSMHWVRQAPGQGLKWMGWINTETGEPTYAQGFTGRFVFSLDTSVSTAYLQISSLKAEDTAVYYCARIPLYYYGSRYWYFDVWGQGTTVTVSS | 6.4% | 6.7% | 7.0%
71 (antibody, V domains shown, synthetic humanized antibody heavy chain variable region sequence; synthetic humanized antibody light chain variable region sequence) VH: QIQLVQSGSELKKPGASVKVSCKASGYTFTDYSMHWVRQAPGQGLKWMGWINTETGEPTYAQGFTGRFVFSLDTSVSTAYLQISSLKAEDTAVYYCARIPLYYYGSRYWYFDVWGQGTTVTVSS VL: EIVMTQSPATLSVSPGERATLSCRASENIYRNLAWYQQKPGQSPRLLIYAATNLADGIPARFSGSGSGTEYTLTISSLQSEDFAVYYCQHFWGTPWTFGQGTKVEIK | 5.3% | 5.5% | 5.5%
95 (antibody, V domains shown, constant regions without entry; synthetic humanized antibody light chain variable region sequence; synthetic humanized antibody heavy chain variable region sequence) VL: EIVMTQSPATLSVSPGERATLSCRASENIYRNLAWYQQKPGQSPRLLIYAATNLADGIPARFSGSGSGTEYTLTISSLQSEDFAVYYCQHFWGTPWTFGQGTKVEIK VH: QVQLVQSGSELKKPGASVKVSCKASGYTFTDYSMHWVRQAPGQGLEWMGWINTETGEPTYADDFKGRFVFSLDTSVSTAYLQISSLKAEDTAVYYCARIPLYYYGSRYWYFDVWGQGTTVTVSS | 4.5% | 4.6% | 4.7%
93 (antibody, V domains shown, constant regions without entry; synthetic humanized antibody light chain variable region sequence; synthetic humanized antibody heavy chain variable region sequence) VL: EIVMTQSPATLSVSPGERATLSCRASENIYRNLAWYQQKPGQSPRLLIYAATNLADGIPARFSGSGSGTEYTLTISSLQSEDFAVYYCQHFWGTPWTFGQGTKVEIK VH: QVQLVQSGSELKKPGASVKVSCKASGYTFTDYSMHWVRQAPGQGLEWMGWINTETGEPTYAQGFTGRFVFSLDTSVSTAYLQISSLKAEDTAVYYCARIPLYYYGSRYWYFDVWGQGTTVTVSS | 4.9% | 5.1% | 5.0%
